Here are results for 94 variants from the supplement of paper PMC10567573.

B1: ZNF449 (parent)
chain: RIHSGEEPHKCPECGKRFLRSSDL
B2: PPFIA4 (parent)
chain: VMTLPSDLRKHRRKLLSPVSREEN
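Further: lentivirally expressed fusions sorted by FACS into six bins by GFP to DsRed ratio, PSI derived from sequencing read proportions per bin multiplied by bin number.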

The first data set covers variants of B1. Kind of data set: protein stability index of a GFP-peptide fusion (GPS, HEK-293T) (PSI 1-6); higher = more stable. To be noted: c terminus: a fixed tail appended.
In the case of FIHSGEEPHKCPECGKRFLRSSDL [R1F], the protein stability index is 1.38.
With HIHSGEEPHKCPECGKRFLRSSDL [R1H], the protein stability index was found to be 4.07.
On the same count and under the same terms, for LIHSGEEPHKCPECGKRFLRSSDL [R1L] the value was 2.92.
Regarding MIHSGEEPHKCPECGKRFLRSSDL [R1M], the protein stability index came out at 3.4.
With CIHSGEEPHKCPECGKRFLRSSDL [R1C], the protein stability index worked out at 5.29.
GIHSGEEPHKCPECGKRFLRSSDL [R1G]: the protein stability index turned out to be 3.74.
As to IIHSGEEPHKCPECGKRFLRSSDL [R1I], the protein stability index was found to be 2.38.
Same read-out and setting: the result for KIHSGEEPHKCPECGKRFLRSSDL [R1K] reads 3.6; that for EIHSGEEPHKCPECGKRFLRSSDL [R1E], 4.41.
On to AIHSGEEPHKCPECGKRFLRSSDL [R1A], for which the protein stability index is 3.75.
As for DIHSGEEPHKCPECGKRFLRSSDL [R1D], the protein stability index is 4.13.

In another data set the parent is B2. The data set is described as above. The conditions noted are these: c terminus: a fixed tail appended.
For the variant VMTLPSDLRKHRRKLLSPYSREEN [V19Y], the protein stability index was 2.94.
VMTLPSDLRKHRRKLLSPFSREEN [V19F]: the protein stability index was 2.85.
As to VMTLPSDLRKHRRKLLSPPSREEN [V19P], the protein stability index worked out at 4.53.
Still for that read-out and setting: for VMTLPSDPRKHRRKLLSPVSREEN [L8P] the value was 3.84; for VMTLPSDSRKHRRKLLSPVSREEN [L8S], 4.73.
Take VMTLPSDTRKHRRKLLSPVSREEN [L8T]: the protein stability index was 4.24.
For VMTLPSDNRKHRRKLLSPVSREEN [L8N], the protein stability index came out at 3.74.
On the same count and under the same terms, the result for VMTLPSDCRKHRRKLLSPVSREEN [L8C] reads 4.04; that for VMTLPSDKRKHRRKLLSPVSREEN [L8K], 4.14.
Take VMTLPSDHRKHRRKLLSPVSREEN [L8H]: the protein stability index was determined as 3.9.
Regarding VCTLPSDLRKHRRKLLSPVSREEN [M2C], the protein stability index came out at 3.65.
Take VHTLPSDLRKHRRKLLSPVSREEN [M2H]: the protein stability index was found to be 4.02.
VSTLPSDLRKHRRKLLSPVSREEN [M2S]: the protein stability index was 3.69.
For VMTLPSDLRKHRHKLLSPVSREEN [R13H], the protein stability index worked out at 4.05.
Take VMTLPSDLRKHRDKLLSPVSREEN [R13D]: the protein stability index turned out to be 4.09.
Regarding VMTLPSDLRKHRRKLLSPVDREEN [S20D], the protein stability index was found to be 4.01.
Regarding VMTLPSDLRKHRRKLLSPVIREEN [S20I], the protein stability index stood at 3.84.
Same read-out and setting: the result for VMTLPSDLRKHRRKLLSPVHREEN [S20H] reads 3.18.
As for VMTTPSDLRKHRRKLLSPVSREEN [L4T], the protein stability index was 4.28.
Consider VMTCPSDLRKHRRKLLSPVSREEN [L4C], for which the protein stability index is 4.31.
The same measure, in the same setting: the result for VMTGPSDLRKHRRKLLSPVSREEN [L4G] reads 4.45.
As to VMTRPSDLRKHRRKLLSPVSREEN [L4R], the protein stability index stood at 3.25.
Turning to VMTVPSDLRKHRRKLLSPVSREEN [L4V], the protein stability index amounted to 3.77.
In the case of VMTLPSDLRKSRRKLLSPVSREEN [H11S], the protein stability index was determined as 3.75.
Still for that read-out and setting: the result for VMTLPSDLRKDRRKLLSPVSREEN [H11D] reads 4.37; that for VMTLPSPLRKHRRKLLSPVSREEN [D7P], 3.44; that for VMTLPSMLRKHRRKLLSPVSREEN [D7M], 2.94.
In the case of VMTLPSDLRKHRRKLLSPVSREVN [E23V], the protein stability index worked out at 3.1.
In the case of VMTLPSDLRKHRRKLLSPVSREPN [E23P], the protein stability index is 3.5.
Still for that read-out and setting: the result for VMTLPSDLRKHRRKLLSPVSREKN [E23K] reads 3.72.
On to VMTLPSDLRKHRRKLLSPVSRESN [E23S], for which the protein stability index came to 3.93.
As to VMTLPSDLRKHRRKLLSPVSREGN [E23G], the protein stability index came to 2.94.
On to VMTLPSDLRKHRRFLLSPVSREEN [K14F], for which the protein stability index came out at 3.54.
Regarding VMTLPSDLRKHRRLLLSPVSREEN [K14L], the protein stability index was 3.48.
The same measure, in the same setting: the result for VMTLPSDLRKHRRDLLSPVSREEN [K14D] reads 4.28; that for VMTLPRDLRKHRRKLLSPVSREEN [S6R], 3.41; that for VMTLPKDLRKHRRKLLSPVSREEN [S6K], 3.24.
The same measure, in the same setting: for VMTLPIDLRKHRRKLLSPVSREEN [S6I] the value was 3.04; for VMTLPSDLRKHRRKLLSPVSTEEN [R21T], 4.12; for VMTLPSDLRKHRRKLLSPVSHEEN [R21H], 4.17.
On the same count and under the same terms, the result for VMTLPSDLRKHRRKLLSPVSSEEN [R21S] reads 4.29; that for VMTLPSDLSKHRRKLLSPVSREEN [R9S], 4.14; that for VMTLPSDLQKHRRKLLSPVSREEN [R9Q], 4.49.
Regarding VMTLPSDLNKHRRKLLSPVSREEN [R9N], the protein stability index was found to be 4.18.
For VMTLPSDLVKHRRKLLSPVSREEN [R9V], the protein stability index is 3.82.
Consider VMTLPSDLDKHRRKLLSPVSREEN [R9D], for which the protein stability index was 4.1.
In the case of VMTLPSDLYKHRRKLLSPVSREEN [R9Y], the protein stability index came out at 3.41.
On the same count and under the same terms, the result for VMTLPSDLRKHQRKLLSPVSREEN [R12Q] reads 4.29; that for VMTLPSDLRMHRRKLLSPVSREEN [K10M], 3.46; that for VMTLPSDLRFHRRKLLSPVSREEN [K10F], 2.75.
The same measure, in the same setting: for VMTLPSDLRQHRRKLLSPVSREEN [K10Q] the value was 4.29.
Regarding VMTLASDLRKHRRKLLSPVSREEN [P5A], the protein stability index was found to be 3.06.
On the same count and under the same terms, for VMTLRSDLRKHRRKLLSPVSREEN [P5R] the value was 4.
Take VMTLHSDLRKHRRKLLSPVSREEN [P5H]: the protein stability index came out at 2.67.
For VMTLTSDLRKHRRKLLSPVSREEN [P5T], the protein stability index worked out at 3.67.
As for VMCLPSDLRKHRRKLLSPVSREEN [T3C], the protein stability index is 3.56.
Regarding VMKLPSDLRKHRRKLLSPVSREEN [T3K], the protein stability index is 2.66.
As to VMNLPSDLRKHRRKLLSPVSREEN [T3N], the protein stability index came to 2.82.
Turning to VMPLPSDLRKHRRKLLSPVSREEN [T3P], the protein stability index came to 3.51.
As to VMFLPSDLRKHRRKLLSPVSREEN [T3F], the protein stability index amounted to 1.74.
Consider VMTLPSDLRKHRRKLLSPVSRSEN [E22S], for which the protein stability index came out at 3.68.
VMTLPSDLRKHRRKLLSPVSRLEN [E22L]: the protein stability index came to 2.26.
Same read-out and setting: the result for VMTLPSDLRKHRRKLLSPVSRNEN [E22N] reads 3.27; that for VMTLPSDLRKHRRKQLSPVSREEN [L15Q], 3.83.
Turning to VMTLPSDLRKHRRKILSPVSREEN [L15I], the protein stability index was found to be 3.9.
Consider VMTLPSDLRKHRRKALSPVSREEN [L15A], for which the protein stability index was 4.08.
Consider VMTLPSDLRKHRRKDLSPVSREEN [L15D], for which the protein stability index was determined as 4.63.
On to LMTLPSDLRKHRRKLLSPVSREEN [V1L], for which the protein stability index worked out at 3.27.
For the variant PMTLPSDLRKHRRKLLSPVSREEN [V1P], the protein stability index stood at 4.27.
Regarding RMTLPSDLRKHRRKLLSPVSREEN [V1R], the protein stability index stood at 4.59.
Still for that read-out and setting: for VMTLPSDLRKHRRKLLSHVSREEN [P18H] the value was 3.52; for VMTLPSDLRKHRRKLLSVVSREEN [P18V], 4.09; for VMTLPSDLRKHRRKLLSCVSREEN [P18C], 3.51.
As to VMTLPSDLRKHRRKLLSPVSREEP [N24P], the protein stability index amounted to 3.45.
For VMTLPSDLRKHRRKLLSPVSREEE [N24E], the protein stability index was found to be 4.31.
As to VMTLPSDLRKHRRKLLSPVSREEK [N24K], the protein stability index amounted to 4.04.
Take VMTLPSDLRKHRRKLLSPVSREEW [N24W]: the protein stability index stood at 2.99.
Still for that read-out and setting: the result for VMTLPSDLRKHRRKLLSPVSREEY [N24Y] reads 3.02.
VMTLPSDLRKHRRKLLSPVSREEH [N24H]: the protein stability index worked out at 3.88.
In the case of VMTLPSDLRKHRRKLLWPVSREEN [S17W], the protein stability index worked out at 2.9.
With VMTLPSDLRKHRRKLLPPVSREEN [S17P], the protein stability index worked out at 4.17.
Same read-out and setting: for VMTLPSDLRKHRRKLLDPVSREEN [S17D] the value was 4.29; for VMTLPSDLRKHRRKLLKPVSREEN [S17K], 3.66.
